In publication PMC5964235, “rbFOX1/MBNL1 competition for CCUG RNA repeats binding contributes to myotonic dystrophy type 1/type 2 differences”:

What was measured:
[1] = target: T1, GST-rbFOX1 (UniProt Q9NWB1); assay: EMSA; conditions: apparent KD; EMSA: 50 mM Tris-HCl pH 7.0, 75 mM NaCl, 37.5 mM KCl, 0.75 mM MgCl2, 5.25 mM DTT, 0.1 mg/mL BSA, 0.1 mg/mL bulk tRNA, 0.4 U/uL RNAsin, 20 min on ice, 10 pM …
T1 sequence: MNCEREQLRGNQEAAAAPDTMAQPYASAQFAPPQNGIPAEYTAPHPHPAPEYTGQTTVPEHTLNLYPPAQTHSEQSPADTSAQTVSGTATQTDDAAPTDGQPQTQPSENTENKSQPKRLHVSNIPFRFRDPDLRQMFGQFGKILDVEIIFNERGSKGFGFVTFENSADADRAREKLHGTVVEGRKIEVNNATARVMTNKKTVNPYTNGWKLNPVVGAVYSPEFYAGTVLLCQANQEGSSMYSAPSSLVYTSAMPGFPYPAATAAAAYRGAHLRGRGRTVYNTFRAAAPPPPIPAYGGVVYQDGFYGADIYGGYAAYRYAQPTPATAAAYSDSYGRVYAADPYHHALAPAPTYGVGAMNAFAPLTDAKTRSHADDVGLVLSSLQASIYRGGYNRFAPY

[2] = target: T2, rbFOX1 RRM (UniProt Q9NWB1 117-193); assay: NMR; 15N-1H HSQC; EMSA: 50 mM Tris-HCl pH 7.0, 75 mM NaCl, 37.5 mM KCl, 0.75 mM MgCl2, 5.25 mM DTT, 0.1 mg/mL BSA, 0.1 mg/mL bulk tRNA, 0.4 U/uL RNAsin, 20 min on ice, 10 pM RNA; gel at 4 C; conditions: protein: recombinant
T2 sequence: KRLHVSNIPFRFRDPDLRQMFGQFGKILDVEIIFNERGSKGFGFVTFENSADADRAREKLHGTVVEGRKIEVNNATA

## GGGAGACCCAAGCUGGCUAGCGUUUAAACUUAAGCUUCCUGCCUGCCUGCCUGCCUGCCUGCCUGCCUGCCUGCCUGCCUGCCUGCCUGCCUGCCUGCCUGCCUGCCUGCCUGCCUGCCUGCCUGCCUGCCUGCCUGCCUGCCUGCCUGCCUGCCUGG [(CCUG)30]
[1]
  Kd: 6.3 nM

## GGGAGACCCAAGCUGGCUAGCGUUUAAACUUAAGCUUCCUGCCUGCCUGCCUGCCUGCCUGCCUGCCUGCCUGCCUGCCUGCCUGCCUGCCUGCCUGCCUGCCUGCCUGCCUGCCUGCCUGCCUGCCUGCCUGCCUGCCUGCCUGCCUGCCUGCCUGCCUGCCUGCCUGCCUGCCUGCCUGCCUGCCUGCCUGCCUGCCUGCCUGCCUGCCUGCCUGCCUGCCUGCCUGCCUGCCUGCCUGCCUGCCUGCCUGCCUGCCUGCCUGCCUGCCUGCCUGCCUGCCUGCCUGCCUGCCUGCCUGCCUGCCUGCCUGCCUGCCUGCCUGCCUGCCUGCCUGCCUGCCUGCCUGCCUGCCUGCCUGCCUGCCUGCCUGCCUGCCUGCCUGCCUGCCUGCCUGCCUGCCUGCCUGCCUGCCUGCCUGCCUGCCUGCCUGCCUGG [(CCUG)100]
[1]
  Kd: 3.2 nM

## GGGAGACCCAAGCUGGCUAGCGUUUAAACUUAAGCUUCCUGCCUGCCUGCCUGCCUGCCUGCCUGCCUGCCUGCCUGG [(CCUG)10]
[1]
  Kd: 9.7 nM

B1: UGCAUGU (NMR) (ssRNA)
RNA: UGCAUGU
[2]
  binding result: binds

B2: UGCCUGC (NMR) (ssRNA)
RNA: UGCCUGC
[2]
  binding result: binds
